# In publication PMC12607626, “Separation of Pseudomonas aeruginosa type IV pilus-dependent twitching motility and surface-sensing responses” (mBio, 2025):
# B1: PilU (Pseudomonas aeruginosa type IVa pilus retraction ATPase paralog of PilT) (enzyme)
# chain: MEFEKLLRLMVEKGGSDLFITAGVPPSMKVNGRVMPVTKTPLSPEQTRETVLGVMNEQQRRDFAENHECNFAISARGIGRFRVSAFYQRNLVGMVLRRIETNIPTLEELKLPEILKKLALTKRGLVIFVGATGTGKSTSLAAMIGYRNKNSTGHIISIEDPIEYIHQHQGCIVTQREVGLDTDSFEVALKNTLRQAPDVIMIGEVRSRETMDHAVAFAETGHLCLATLHANNANQALERIIHFFPADRHGQVWMDLSLNLKAIVAQQLVPTPDGKGRRAVIEVLLNTPLAADLIRKGEVHELKPLMKRSTEQGMQTFDQALYQLYTQGEITYEDALAHADSANDLRLMIKLGSESDADHLSSLTQGLSLEITDDDPAGRRFR
# notes: PilU, P. aeruginosa; the pilU gene was amplified by PCR and cloned into pET28a; the 30 C-terminal residues were not resolved in the crystal; also called PilU hexamer; source: E. coli BL21 (DE3), pET28a, purified (HiTrap Chelating HP, size-exclusion chromatography)
# Molecular target: the molecule itself
# Assay: crystal structure; X-ray, 4.5 Å; sitting-drop vapour diffusion at 20 °C; 12.5 µM ATP in the final buffer, no nucleotide density; four protomers in the asymmetric unit, two nearly identical C3 hexamers identified from the crystal packing
protein,measurement,value
B1,stoichiometry N,6
